Experimental findings from patent US20060188503A1 are described below.

The target in assay [1] is KDR receptor on human umbilical vein endothelial cells (HUVEC) (human) (UniProt P35968). Kind of assay: cell-based or functional assay.
Assay [2] concerns the target KDR receptor with a gD tag at the N-terminus, on CHO cells (UniProt P35968). Kind of assay: cell-based or functional assay.

Chain of KDR receptor on human umbilical vein endothelial cells (HUVEC) (human) (P35968 20-1356): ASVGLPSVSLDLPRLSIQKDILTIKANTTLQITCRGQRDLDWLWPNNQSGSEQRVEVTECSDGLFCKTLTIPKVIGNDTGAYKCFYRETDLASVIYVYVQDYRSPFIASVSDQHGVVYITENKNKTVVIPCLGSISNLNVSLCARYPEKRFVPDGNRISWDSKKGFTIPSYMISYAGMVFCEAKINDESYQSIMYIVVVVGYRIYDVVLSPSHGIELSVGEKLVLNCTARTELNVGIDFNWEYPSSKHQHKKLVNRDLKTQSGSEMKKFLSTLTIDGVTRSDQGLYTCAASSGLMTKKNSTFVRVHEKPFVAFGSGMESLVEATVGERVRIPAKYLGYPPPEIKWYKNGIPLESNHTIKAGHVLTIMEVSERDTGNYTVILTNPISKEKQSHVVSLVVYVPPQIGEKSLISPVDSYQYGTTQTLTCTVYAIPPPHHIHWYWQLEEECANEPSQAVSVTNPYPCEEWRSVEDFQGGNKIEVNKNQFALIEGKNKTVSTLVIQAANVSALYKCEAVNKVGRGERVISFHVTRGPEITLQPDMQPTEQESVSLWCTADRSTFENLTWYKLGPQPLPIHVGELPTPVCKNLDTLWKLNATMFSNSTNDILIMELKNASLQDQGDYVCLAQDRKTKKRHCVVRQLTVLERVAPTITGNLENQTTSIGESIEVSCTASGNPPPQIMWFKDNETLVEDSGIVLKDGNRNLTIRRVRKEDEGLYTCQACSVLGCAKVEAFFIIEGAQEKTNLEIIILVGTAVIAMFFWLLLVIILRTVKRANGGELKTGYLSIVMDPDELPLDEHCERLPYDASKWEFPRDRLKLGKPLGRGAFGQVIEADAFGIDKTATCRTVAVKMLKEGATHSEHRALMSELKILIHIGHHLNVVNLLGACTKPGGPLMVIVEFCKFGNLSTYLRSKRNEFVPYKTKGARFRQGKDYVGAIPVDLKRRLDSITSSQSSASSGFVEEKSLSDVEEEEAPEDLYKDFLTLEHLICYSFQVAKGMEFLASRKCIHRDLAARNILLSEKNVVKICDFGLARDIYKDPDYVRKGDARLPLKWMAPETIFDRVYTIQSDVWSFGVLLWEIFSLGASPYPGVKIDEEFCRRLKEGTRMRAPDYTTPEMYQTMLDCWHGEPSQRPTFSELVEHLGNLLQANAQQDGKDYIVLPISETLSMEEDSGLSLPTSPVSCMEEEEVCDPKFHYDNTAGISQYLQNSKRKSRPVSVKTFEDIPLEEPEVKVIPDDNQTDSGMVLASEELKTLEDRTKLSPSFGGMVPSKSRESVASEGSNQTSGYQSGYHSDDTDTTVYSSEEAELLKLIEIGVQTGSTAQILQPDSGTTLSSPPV

As for “Native VEGF (8-109) (from UniProt P15692 214-315) (ligand)”, the Endothelial Cell Proliferation Activity (HUVEC, 3H-thymidine), concentration in assay [1] worked out at 0.5 nM. In assay [2], this substance returned a Phosphorylation-Inducing Activity (KIRA), concentration at midpoint absorbance of 2 nM.
